Assay results reported in article PMC3877047 (PLoS ONE, 2013).

T1: HMunc18c (His6-tagged full-length mouse Munc18c from a codon-optimised synthetic gene in pQE30) (mouse, UniProt Q60770 1-592)
T1 construct: Monomer by SEC-MALS; also called pQE30-His6-Munc18c; bacterially expressed Munc18c; source: E. coli BL21, co-expressed with GroEL/GroES, purified (IMAC PrepEase, SEC, MonoS IEC); not shown: His6, N-terminal, kept
T1 sequence (looked up): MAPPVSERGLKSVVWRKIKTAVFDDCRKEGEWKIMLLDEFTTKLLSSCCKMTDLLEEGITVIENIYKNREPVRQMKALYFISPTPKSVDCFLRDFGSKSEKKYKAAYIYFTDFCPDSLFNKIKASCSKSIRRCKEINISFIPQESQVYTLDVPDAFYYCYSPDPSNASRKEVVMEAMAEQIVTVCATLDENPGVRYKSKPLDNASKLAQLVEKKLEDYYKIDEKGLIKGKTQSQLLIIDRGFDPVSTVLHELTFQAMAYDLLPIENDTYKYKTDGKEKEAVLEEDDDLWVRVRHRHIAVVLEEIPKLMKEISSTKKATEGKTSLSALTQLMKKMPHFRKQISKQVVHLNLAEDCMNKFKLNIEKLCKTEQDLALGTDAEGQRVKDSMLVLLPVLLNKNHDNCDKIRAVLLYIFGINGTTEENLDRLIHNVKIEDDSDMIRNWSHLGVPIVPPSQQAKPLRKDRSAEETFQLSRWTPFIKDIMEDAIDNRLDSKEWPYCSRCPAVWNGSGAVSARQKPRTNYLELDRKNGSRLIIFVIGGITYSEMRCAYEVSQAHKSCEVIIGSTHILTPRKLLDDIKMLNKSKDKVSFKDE

B1: Sx4(1-275)-His (C-terminally His6-tagged Syntaxin4 C141S, residues 1-275) (domain or fragment, UniProt P70452 1-275, looked up)
chain: MRDRTHELRQGDNISDDEDEVRVALVVHSGAARLGSPDDEFFQKVQTIRQTMAKLESKVRELEKQQVTILATPLPEESMKQGLQNLREEIKQLGREVRAQLKAIEPQKEEADENYNSVNTRMKKTQHGVLSQQFVELINKSNSMQSEYREKNVERIRRQLKITNAGMVSDEELEQMLDSGQSEVFVSNILKDTQVTRQALNEISARHSEIQQLERSIRELHEIFTFLATEVEMQGEMINRIEKNILSSADYVERGQEHVKIALENQKKARKKKVM
notes: source: also in lysate for the co-purification; not shown: His6, C-terminal, kept

Legend:
[1] = biological target: T1, HMunc18c (His6-tagged full-length mouse …); test: ITC; 298 K, iTC200; Sx4(1-275)-His 200-220 µM titrated into 20-30 µM HMunc18c in the cell; 25 mM HEPES pH 8, 200 mM NaCl, 10% glycerol, 2 mM β-ME; single site model; four replicates, mean ± SEM; conditions: both partners purified
[2] = biological target: B1; test: pull-down + SEC; lysates of un-tagged Munc18c and Sx4(1-275)-His mixed 3:1 by volume, captured on TALON beads, eluted, Superdex 200 in 25 mM Tris-HCl pH 7.5, 300 mM NaCl, 10% glycerol; peak fractions on SDS-PAGE; conditions: partners not purified

| Kd [1] [nM] | dH [1] [kcal/mol] | stoichiometry N [1] | stoichiometry N [2] | Binder |
| --- | --- | --- | --- | --- |
| 104 | -11 | 0.97 |  | B1 |
|  |  |  | 1 | Munc18c (un-tagged) (natural protein, mouse, UniProt Q60770 1-592, looked up, made from pQE30-HMunc18c by PCR that removes the His6 codons; A few vector-encoded residues may be left at the N-terminus (surmised); also called untagged Munc18c; un-tagged Munc18c) MAPPVSERGLKSVVWRKIKTAVFDDCRKEGEWKIMLLDEFTTKLLSSCCKMTDLLEEGITVIENIYKNREPVRQMKALYFISPTPKSVDCFLRDFGSKSEKKYKAAYIYFTDFCPDSLFNKIKASCSKSIRRCKEINISFIPQESQVYTLDVPDAFYYCYSPDPSNASRKEVVMEAMAEQIVTVCATLDENPGVRYKSKPLDNASKLAQLVEKKLEDYYKIDEKGLIKGKTQSQLLIIDRGFDPVSTVLHELTFQAMAYDLLPIENDTYKYKTDGKEKEAVLEEDDDLWVRVRHRHIAVVLEEIPKLMKEISSTKKATEGKTSLSALTQLMKKMPHFRKQISKQVVHLNLAEDCMNKFKLNIEKLCKTEQDLALGTDAEGQRVKDSMLVLLPVLLNKNHDNCDKIRAVLLYIFGINGTTEENLDRLIHNVKIEDDSDMIRNWSHLGVPIVPPSQQAKPLRKDRSAEETFQLSRWTPFIKDIMEDAIDNRLDSKEWPYCSRCPAVWNGSGAVSARQKPRTNYLELDRKNGSRLIIFVIGGITYSEMRCAYEVSQAHKSCEVIIGSTHILTPRKLLDDIKMLNKSKDKVSFKDE |
